In paper PMC11626777 one finds expression_or_secretion data, which are given here for two proteins.

Data set [1] in a line: western blot of HDAC5 protein, mBMSCs. Particulars: glycan lost; control: DMSO. On the technique in general: In western blotting, separated proteins are transferred to a membrane and probed.
Data set [2] in a line: HDAC5 protein level in bone tissue. The conditions noted are these: glycan lost; control: Ogtfl/fl mice.

B1: HDAC5: OSMI-1 (protein)
parent chain: MNSPNESDGMSGREPSLGILPRTPLHSIPVAVEVKPVLPGAMPSSMGGGGGGSPSPVELRGALAGPMDPALREQQLQQELLVLKQQQQLQKQLLFAEFQKQHDHLTRQHEVQLQKHLKQQQEMLAAKRQQELEQQRQREQQRQEELEKQRLEQQLLILRNKEKSKESAIASTEVKLRLQEFLLSKSKEPTPGGLNHSLPQHPKCWGAHHASLDQSSPPQSGPPGTPPSYKLPLLGPYDSRDDFPLRKTASEPNLKVRSRLKQKVAERRSSPLLRRKDGTVISTFKKRAVEITGTGPGVSSVCNSAPGSGPSSPNSSHSTIAENGFTGSVPNIPTEMIPQHRALPLDSSPNQFSLYTSPSLPNISLGLQATVTVTNSHLTASPKLSTQQEAERQALQSLRQGGTLTGKFMSTSSIPGCLLGVALEGDTSPHGHASLLQHVCSWTGRQQSTLIAVPLHGQSPLVTGERVATSMRTVGKLPRHRPLSRTQSSPLPQSPQALQQLVMQQQHQQFLEKQKQQQMQLGKILTKTGELSRQPTTHPEETEEELTEQQEALLGEGALTIPREGSTESESTQEDLEEEEEEEEEEEEDCIQVKDEDGESGPDEGPDLEESSAGYKKLFADAQQLQPLQVYQAPLSLATVPHQALGRTQSSPAAPGSMKSPTDQPTVVKHLFTTGVVYDTFMLKHQCMCGNTHVHPEHAGRIQSIWSRLQETGLLGKCERIRGRKATLDEIQTVHSEYHTLLYGTSPLNRQKLDSKKLLGPISQKMYAMLPCGGIGVDSDTVWNEMHSSSAVRMAVGCLVELAFKVAAGELKNGFAIIRPPGHHAEESTAMGFCFFNSVAITAKLLQQKLSVGKVLIVDWDIHHGNGTQQAFYNDPSVLYISLHRYDNGNFFPGSGAPEEVGGGPGVGYNVNVAWTGGVDPPIGDVEYLTAFRTVVMPIAQEFSPDVVLVSAGFDAVEGHLSPLGGYSVTARCFGHLTRQLMTLAGGRVVLALEGGHDLTAICDASEACVSALLSVELQPLDEAVLQQKPSVNAVATLEKVIEIQSKHWSCVQRFAAGLGCSLREAQTGEKEEAETVSAMALLSVGAEQAQAVATQEHSPRPAEEPMEQEPAL
B1: in data set [1], the expression_or_secretion result was “increases”.

B2: HDAC5: Ogtfl/fl; Bglap-Cre (Ogt cKO) (protein)
parent chain: MNSPNESDGMSGREPSLGILPRTPLHSIPVAVEVKPVLPGAMPSSMGGGGGGSPSPVELRGALAGPMDPALREQQLQQELLVLKQQQQLQKQLLFAEFQKQHDHLTRQHEVQLQKHLKQQQEMLAAKRQQELEQQRQREQQRQEELEKQRLEQQLLILRNKEKSKESAIASTEVKLRLQEFLLSKSKEPTPGGLNHSLPQHPKCWGAHHASLDQSSPPQSGPPGTPPSYKLPLLGPYDSRDDFPLRKTASEPNLKVRSRLKQKVAERRSSPLLRRKDGTVISTFKKRAVEITGTGPGVSSVCNSAPGSGPSSPNSSHSTIAENGFTGSVPNIPTEMIPQHRALPLDSSPNQFSLYTSPSLPNISLGLQATVTVTNSHLTASPKLSTQQEAERQALQSLRQGGTLTGKFMSTSSIPGCLLGVALEGDTSPHGHASLLQHVCSWTGRQQSTLIAVPLHGQSPLVTGERVATSMRTVGKLPRHRPLSRTQSSPLPQSPQALQQLVMQQQHQQFLEKQKQQQMQLGKILTKTGELSRQPTTHPEETEEELTEQQEALLGEGALTIPREGSTESESTQEDLEEEEEEEEEEEEDCIQVKDEDGESGPDEGPDLEESSAGYKKLFADAQQLQPLQVYQAPLSLATVPHQALGRTQSSPAAPGSMKSPTDQPTVVKHLFTTGVVYDTFMLKHQCMCGNTHVHPEHAGRIQSIWSRLQETGLLGKCERIRGRKATLDEIQTVHSEYHTLLYGTSPLNRQKLDSKKLLGPISQKMYAMLPCGGIGVDSDTVWNEMHSSSAVRMAVGCLVELAFKVAAGELKNGFAIIRPPGHHAEESTAMGFCFFNSVAITAKLLQQKLSVGKVLIVDWDIHHGNGTQQAFYNDPSVLYISLHRYDNGNFFPGSGAPEEVGGGPGVGYNVNVAWTGGVDPPIGDVEYLTAFRTVVMPIAQEFSPDVVLVSAGFDAVEGHLSPLGGYSVTARCFGHLTRQLMTLAGGRVVLALEGGHDLTAICDASEACVSALLSVELQPLDEAVLQQKPSVNAVATLEKVIEIQSKHWSCVQRFAAGLGCSLREAQTGEKEEAETVSAMALLSVGAEQAQAVATQEHSPRPAEEPMEQEPAL
For the protein B2, the expression_or_secretion result in data set [2] is on record as “increases”.
